Source: publication PMC2997714 (Developmental cell, 2009)
Several values for one entry are separate records, joined by “and”; a condition that tells them apart may be missing. Identical values can stand only once.

Target: the molecule itself
Experiment: cross-linking

B1: recombinant His-klp9p (natural protein, S. pombe (fission yeast), UniProt Q1MTQ7 1-633, looked up)
chain: MIQIFLRVKKAQPSSDASNKYGFLTVLNDYEILLESPEDSHAYRVSKSKTLEKASFTKVFPPSCTQLDVFSTICAPLIADSLVNMNDTLLFTLGVSGAGKTYTLFGPSDRPGVAFLALDALFYAIKGREASPQTVEFLRSQLEKCKIVEASKFLRGEAPLDIKVPNTEYYASHFPKIEEKNYQYAIYLSFAEIYNDRIFDLLEKASFFGHRHALSLKKSSTSDKKSIAGIQKVFVSNTTEAYKLIQKVLQLRKSTSTKSNSVSSRSHLIMSIELFKVCTKSNKFESCQIDLVDLAGSERTRSAETSGLLLREGASINRSLLTLGQCLEALRRKHEGKQHIIPFRQSKLTELLFHSGHLSGLAGINMLVNIDPFGSFDENAQVMRYSANAREILPPPLNENSGSQSPSHSLLQKSKNTSSTKALTSHLEQLQQENQQLRMLLADADSEMMNLEYEIRQQMTREMEERVSEVERTFLTKLLEESAQGIEYTDQKLEKMGGWMKKLQDENSEKTETIAQLEQIIEELHEELRSLEEESIKESSATQQNENQHKRSSRKLLYEDKQAIQEAHTINTKRKLWPQSTLIQAPNSDDEENVPSPSPKKKVVSPIKPLSPSRRPPLTSLYSGTTDIDINEL
stoichiometry N: 2 and 4
